Assay results published in paper PMC4342030 (Molecular Biology of the Cell, 2015).
One block for each binder: values may come before it.

Columns and labels:
[1] = target: T1, purified APPL2 after cleavage of GST (mouse, UniProt Q8K3G9 1-662); assay: pull-down
T1 sequence (looked up): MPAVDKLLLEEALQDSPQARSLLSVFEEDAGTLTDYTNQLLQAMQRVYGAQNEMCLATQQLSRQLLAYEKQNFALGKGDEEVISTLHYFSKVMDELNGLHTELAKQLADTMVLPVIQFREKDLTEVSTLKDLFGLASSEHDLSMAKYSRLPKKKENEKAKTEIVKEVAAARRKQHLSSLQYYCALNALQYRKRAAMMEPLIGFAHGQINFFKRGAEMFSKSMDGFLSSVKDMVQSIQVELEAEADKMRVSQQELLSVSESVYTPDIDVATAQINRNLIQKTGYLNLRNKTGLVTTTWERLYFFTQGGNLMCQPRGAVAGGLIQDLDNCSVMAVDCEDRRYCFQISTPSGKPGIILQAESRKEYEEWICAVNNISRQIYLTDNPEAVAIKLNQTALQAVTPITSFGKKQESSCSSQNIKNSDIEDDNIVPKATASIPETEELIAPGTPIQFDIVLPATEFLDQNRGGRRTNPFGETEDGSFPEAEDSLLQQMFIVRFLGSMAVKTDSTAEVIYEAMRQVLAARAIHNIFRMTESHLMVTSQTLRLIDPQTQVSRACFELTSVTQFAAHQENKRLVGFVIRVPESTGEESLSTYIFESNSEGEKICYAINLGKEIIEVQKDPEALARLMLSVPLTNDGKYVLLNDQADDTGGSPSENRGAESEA

GFP-Rab31 = target: T2, GFP-Rab31 (mouse, UniProt Q921E2 1-195); assay: co-IP
T2 sequence (looked up): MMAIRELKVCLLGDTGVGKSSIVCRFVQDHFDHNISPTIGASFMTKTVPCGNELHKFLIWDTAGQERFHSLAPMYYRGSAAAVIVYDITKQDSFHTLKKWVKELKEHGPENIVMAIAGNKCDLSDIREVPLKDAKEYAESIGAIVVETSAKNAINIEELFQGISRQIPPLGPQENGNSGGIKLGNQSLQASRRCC

binding result [1]: binds
B1: GST-Rab31 (natural protein, mouse, UniProt Q921E2 1-195, looked up)
chain: T2 sequence (looked up)

fold preference over GFP-Rab5a (GFP-Rab31): 3 fold
B2: APPL2 (adaptor protein, phosphotyrosine interaction, PH domain, and leucine zipper–containing 2) (natural protein, mouse (endogenous in RAW 264.7), UniProt Q8K3G9 1-662, looked up)
chain: T1 sequence (looked up)
